Results reported in patent US6337206B1 (priority 1997, dated 2002).
Where two headings read alike, the source gives them in different places. No end group written: not given here.

What was measured:
hGALR1* (human) = hGALR1* (human) (UniProt P47211); assay: competition
hGALR2 [1] = molecular target: hGALR2 (UniProt O43603); assay: competition
rat GALR2 = rat GALR2 (UniProt O08726); assay: competition
hGALR2 [2] = molecular target: hGALR2 (UniProt O43603); assay: cell-based or functional assay
rat GALR1 [3] = molecular target: T1, rat GALR1 (rat, UniProt Q62805 1-346); assay: competition of 125I-human galanin binding, membranes
T1 sequence: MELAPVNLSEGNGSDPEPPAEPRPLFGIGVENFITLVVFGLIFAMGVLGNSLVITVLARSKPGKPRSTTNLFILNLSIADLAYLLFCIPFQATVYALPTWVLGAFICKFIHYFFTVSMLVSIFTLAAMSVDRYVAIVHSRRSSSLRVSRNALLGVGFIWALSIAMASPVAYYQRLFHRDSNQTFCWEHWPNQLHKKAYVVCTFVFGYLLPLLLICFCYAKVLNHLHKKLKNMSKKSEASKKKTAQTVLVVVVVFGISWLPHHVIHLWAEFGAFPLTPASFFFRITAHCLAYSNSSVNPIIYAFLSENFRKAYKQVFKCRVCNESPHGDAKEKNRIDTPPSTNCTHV

rat GALR2 (clone 27A) [4] = molecular target: T2, rat GALR2 (clone 27A) (rat, UniProt O08726 1-372); assay: competition of 125I-human galanin binding, COS-7 membranes
T2 construct: Full-length 372-amino-acid receptor expressed in transiently transfected COS-7 cells; also called pCI.neo/27A
T2 sequence: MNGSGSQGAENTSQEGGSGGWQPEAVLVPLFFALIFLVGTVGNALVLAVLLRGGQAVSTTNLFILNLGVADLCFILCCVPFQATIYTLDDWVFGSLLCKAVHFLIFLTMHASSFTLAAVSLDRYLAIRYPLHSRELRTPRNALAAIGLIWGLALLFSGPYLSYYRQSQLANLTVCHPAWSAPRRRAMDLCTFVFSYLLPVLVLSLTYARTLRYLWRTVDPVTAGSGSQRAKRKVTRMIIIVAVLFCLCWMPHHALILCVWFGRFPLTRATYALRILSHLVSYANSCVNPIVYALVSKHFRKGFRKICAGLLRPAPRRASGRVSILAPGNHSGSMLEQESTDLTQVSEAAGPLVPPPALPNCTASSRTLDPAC

rat GALR1 [5] = molecular target: T3, rat GALR1 (Rattus norvegicus, UniProt Q62805); assay: biochemical
T3 sequence (Q62805 1-346): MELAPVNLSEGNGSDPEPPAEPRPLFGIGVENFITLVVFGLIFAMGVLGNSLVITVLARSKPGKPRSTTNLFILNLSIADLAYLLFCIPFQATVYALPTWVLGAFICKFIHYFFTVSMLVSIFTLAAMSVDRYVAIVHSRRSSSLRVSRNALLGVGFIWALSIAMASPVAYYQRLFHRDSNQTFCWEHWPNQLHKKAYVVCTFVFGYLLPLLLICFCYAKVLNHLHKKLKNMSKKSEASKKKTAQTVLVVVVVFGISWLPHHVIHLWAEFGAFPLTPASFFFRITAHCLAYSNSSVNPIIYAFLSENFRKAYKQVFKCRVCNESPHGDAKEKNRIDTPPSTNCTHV

rat GALR2 (clone 27A) [6] = molecular target: T4, rat GALR2 (clone 27A) (Rattus norvegicus, UniProt O08726); assay: biochemical
T4 sequence (O08726 1-372): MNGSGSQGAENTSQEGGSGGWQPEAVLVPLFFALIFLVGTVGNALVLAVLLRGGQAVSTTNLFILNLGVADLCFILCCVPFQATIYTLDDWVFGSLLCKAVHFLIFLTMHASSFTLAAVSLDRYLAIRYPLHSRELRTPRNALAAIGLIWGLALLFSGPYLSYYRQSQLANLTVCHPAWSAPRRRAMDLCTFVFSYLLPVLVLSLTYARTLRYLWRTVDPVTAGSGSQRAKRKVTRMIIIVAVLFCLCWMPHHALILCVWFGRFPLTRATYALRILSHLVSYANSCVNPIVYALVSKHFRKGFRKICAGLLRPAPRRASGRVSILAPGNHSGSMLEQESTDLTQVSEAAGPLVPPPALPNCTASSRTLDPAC

human GALR2 [7] = molecular target: T5, human GALR2 (Homo sapiens, UniProt O43603); assay: Aequorin bioluminescence assay in 293-AEQ17 cells, human GALR2; assay type: cell-based; conditions: read-out: EC50, aequorin bioluminescence; human GALR2 in 293-AEQ17 cells
T5 construct: expressed in transfected cells; host or cells: 293-AEQ17 (aequorin-expressing 293 line)
T5 sequence (O43603 1-387): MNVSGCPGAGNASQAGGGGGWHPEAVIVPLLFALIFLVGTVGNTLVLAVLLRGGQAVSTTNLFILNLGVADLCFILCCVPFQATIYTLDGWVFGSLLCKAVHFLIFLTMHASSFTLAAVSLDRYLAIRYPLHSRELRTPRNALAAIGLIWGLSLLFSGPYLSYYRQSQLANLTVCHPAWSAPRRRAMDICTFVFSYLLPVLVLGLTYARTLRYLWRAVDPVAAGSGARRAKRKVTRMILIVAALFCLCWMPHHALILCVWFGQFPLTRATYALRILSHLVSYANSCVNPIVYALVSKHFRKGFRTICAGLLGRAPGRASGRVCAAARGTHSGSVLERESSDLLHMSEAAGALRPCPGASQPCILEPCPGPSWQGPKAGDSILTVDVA

rat GALR1 [8] = molecular target: T3, rat GALR1
Protocol: (§1) Membranes were prepared from transfected cells following dissociation in enzyme-free dissociation solution (Specialty Media, Lavallette, N.J.) by disruption in a Dounce homogenizer in ice-cold membrane buffer (10 mM Tris, pH 7.4, 10 mM PMSF, 10 μM phosphoramidon, and 40 μg/ml bacitracin). After a low speed (1100×g for 10 min. at 4° C.) and a high speed centrifugation (38,700×g for 15 min. at 4° C.), membranes were resuspended in buffer and protein concentration determined (Bio-Rad assay kit). […] Reactions were initiated by the addition of membranes and the incubation was allowed to proceed at room temperature for 1 hour. […] Incubations were terminated by rapid filtration through GF/C filters which had been presoaked with 0.1% polyethylamine using a TOMTEC (Orange, Conn.) cell harvester. The results were analyzed using the Prism software package (GraphPad, San Diego, Calif.).

rat GALR2 (clone 27A) [9] = molecular target: T4, rat GALR2 (clone 27A)
Protocol: Mammalian COS-7 cells were transfected by electroporation. COS-7 cells (1×10^7) were suspended in 0.85 ml of Ringers' buffer and 15 mg of the pCI.neo/27A clone was added to a 0.4 mm electroporation cuvette (Bio-Rad, Hercules, Calif.). Current was applied (960 μF, 260 V) using a Bio-Rad Electroporator device and the cells were transferred to a T-180 flask (Corning). Expression was allowed to proceed for 72 hrs.
as §1

galanin receptors = conditions: hypothalamus, ventral hippocampus, basal forebrain, spinal cord, pancreas, pituitary; read-out: Kd of specific binding; cited from earlier work
human GALR2 [10] = molecular target: T6, human GALR2 (human, UniProt O43603 1-387); assay: cell-based or functional assay
T6 sequence: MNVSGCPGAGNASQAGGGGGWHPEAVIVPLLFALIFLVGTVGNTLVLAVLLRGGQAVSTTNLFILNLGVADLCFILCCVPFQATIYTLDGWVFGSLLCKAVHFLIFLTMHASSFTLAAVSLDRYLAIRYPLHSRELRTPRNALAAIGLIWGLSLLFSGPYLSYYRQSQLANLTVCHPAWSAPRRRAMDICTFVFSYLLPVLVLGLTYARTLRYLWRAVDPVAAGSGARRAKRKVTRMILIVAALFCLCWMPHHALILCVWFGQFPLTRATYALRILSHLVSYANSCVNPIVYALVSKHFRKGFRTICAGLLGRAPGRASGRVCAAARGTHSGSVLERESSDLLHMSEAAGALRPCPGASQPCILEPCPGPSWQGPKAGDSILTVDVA

human GALR2 [11] = molecular target: T7, human GALR2 (UniProt O43603 1-387); assay: 125I-human galanin competition binding
T7 chain: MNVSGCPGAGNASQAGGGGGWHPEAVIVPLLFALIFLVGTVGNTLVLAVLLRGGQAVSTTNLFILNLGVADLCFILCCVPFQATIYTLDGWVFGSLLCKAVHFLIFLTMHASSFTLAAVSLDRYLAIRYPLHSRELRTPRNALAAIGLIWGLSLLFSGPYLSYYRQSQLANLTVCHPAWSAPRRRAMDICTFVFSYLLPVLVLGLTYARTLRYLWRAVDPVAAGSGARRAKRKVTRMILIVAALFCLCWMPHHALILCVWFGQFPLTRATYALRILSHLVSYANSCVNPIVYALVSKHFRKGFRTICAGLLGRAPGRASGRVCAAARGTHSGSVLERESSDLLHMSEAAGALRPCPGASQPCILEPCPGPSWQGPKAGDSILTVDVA

Chain of hGALR1* (human) (P47211 whole entry): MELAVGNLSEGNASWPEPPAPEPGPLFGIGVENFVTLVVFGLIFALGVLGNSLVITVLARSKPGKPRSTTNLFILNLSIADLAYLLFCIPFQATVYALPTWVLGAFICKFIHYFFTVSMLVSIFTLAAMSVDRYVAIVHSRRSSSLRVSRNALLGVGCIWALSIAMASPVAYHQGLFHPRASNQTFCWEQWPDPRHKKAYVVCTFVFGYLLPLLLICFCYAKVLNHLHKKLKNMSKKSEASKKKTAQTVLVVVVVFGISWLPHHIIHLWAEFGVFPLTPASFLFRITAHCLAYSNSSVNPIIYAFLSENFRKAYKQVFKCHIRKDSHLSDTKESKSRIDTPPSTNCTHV

## M40
hGALR1* (human)
  IC50: 0.48 nM
hGALR2 [1]
  IC50: 9.5 nM
Rat GALR2
  IC50: 1.8 nM

## M40 (peptide)
hGALR2 [2]
  EC50, aequorin bioluminescence in 293-AEQ17 cells: 8.8 nM
Rat GALR1 [3]
  IC50: 0.01 nM
Rat GALR2 (clone 27A) [4]
  IC50: 1.9 nM

## CC(C)C[C@H](NC(=O)[C@H](CC(C)C)NC(=O)[C@@H](Cc1c[nH]c2ccccc12)NC(=O)[C@H](Cc1ccccc1)NC(=O)[C@@H](Cc1c[nH]c2ccccc12)NC(=O)[C@H](CCC(N)=O)NC(=O)[C@H](CCC(N)=O)NC(=O)[C@@H]1CCCN1C(=O)[C@H](CCCCN)NC(=O)[C@@H]1CCCN1C(=O)[C@@H](CCCNC(=N)N)NC(=O)[C@@H]1CCCN1C(=O)CNC(=O)[C@H](CC(C)C)NC(=O)[C@H](CC(C)C)NC(=O)[C@H](Cc1ccc(O)cc1)NC(=O)CNC(=O)[C@H](C)NC(=O)[C@H](CO)NC(=O)[C@H](CC(N)=O)NC(=O)[C@H](CC(C)C)NC(=O)[C@@H](NC(=O)[C@H](Cc1c[nH]c2ccccc12)NC(=O)CN)[C@@H](C)O)C(N)=O [C7]
Rat GALR1 [5]
  IC50: 4.9 ± 3 nM
Rat GALR2 (clone 27A) [6]
  IC50: 23 ± 13 nM

## CC[C@H](C)[C@H](NC(=O)[C@H](C)NC(=O)[C@H](Cc1c[nH]cn1)NC(=O)[C@@H]1CCCN1C(=O)CNC(=O)[C@H](CC(C)C)NC(=O)[C@H](CC(C)C)NC(=O)[C@H](Cc1ccc(O)cc1)NC(=O)CNC(=O)[C@H](C)NC(=O)[C@H](CO)NC(=O)[C@H](CC(N)=O)NC(=O)[C@H](CC(C)C)NC(=O)[C@@H](N)[C@@H](C)O)C(=O)N[C@@H](CC(=O)O)C(=O)N[C@@H](CC(N)=O)C(=O)N[C@@H](Cc1c[nH]cn1)C(=O)N[C@@H](CCCNC(=N)N)C(=O)N[C@@H](CO)C(=O)N[C@@H](Cc1ccccc1)C(=O)N[C@@H](CO)C(=O)N[C@@H](CC(=O)O)C(=O)N[C@@H](CCCCN)C(=O)N[C@@H](Cc1c[nH]cn1)C(=O)NCC(=O)N[C@@H](CC(C)C)C(=O)N[C@H](C(N)=O)[C@@H](C)O [rat Gal (3-29)]
Human GALR2 [7]
  EC50: > 10000 nM
Rat GALR1 [8]
  IC50: > 1000 nM
Rat GALR2 (clone 27A) [9]
  IC50: > 1000 nM

## 125I-galanin
Galanin receptors
  Kd: ~1 nM

## M35 (peptide)
hGALR2 [2]
  EC50, aequorin bioluminescence in 293-AEQ17 cells: 44 nM
Rat GALR1 [3]
  IC50: 0.9 nM
Rat GALR2 (clone 27A) [4]
  IC50: 0.43 nM

## M35
hGALR1* (human)
  IC50: 0.04 nM
hGALR2 [1]
  IC50: 5.6 nM

## galantide(M15) (peptide)
Rat GALR1 [3]
  IC50: 1 nM

## C7
hGALR1* (human)
  IC50: 6.3 nM
hGALR2 [1]
  IC50: 40.5 nM
Rat GALR2
  IC50: 13.5 nM

B1: human Gal (1-19) (peptide, UniProt P22466 33-51, looked up)
peptide: GWTLNSAGYLLGPHAVGNH
notes: range 1-19; also called hGal (1-19)
Rat GALR1 [3]
  IC50: 0.86 nM

B2: rat Gal (2-29) (peptide, UniProt P10683 34-61, looked up)
peptide: WTLNSAGYLLGPHAIDNHRSFSDKHGLT
notes: range 2-29; also called rGAL(2-29)
Human GALR2 [10]
  EC50, aequorin bioluminescence in 293-AEQ17 cells: 31 nM
Rat GALR2 (clone 27A) [4]
  IC50: 2.9 nM
Human GALR2 [11]
  IC50: 15.4 nM

B3: rat galanin (peptide)
peptide: GWTLNSAGYLLGPHAIDNHRSFSDKHGLT
modifications: ends and bridges not checked
Human GALR2 [11]
  IC50: 1.6 nM

B4: rat Gal (3-29) (peptide)
peptide: TLNSAGYLLGPHAIDNHRSFSDKHGLT
Human GALR2 [10]
  EC50, aequorin bioluminescence in 293-AEQ17 cells: > 10000 nM
Human GALR2 [11]
  IC50: > 1000 nM
